According to US20230322947A1 (published 2023):

Molecular target: T1, cynomolgous CD3 on the cynomolgous T-cell line HSC-F (cynomolgus, UniProt Q95LI8 22-171; Q95LI7 23-181)
T1 chain: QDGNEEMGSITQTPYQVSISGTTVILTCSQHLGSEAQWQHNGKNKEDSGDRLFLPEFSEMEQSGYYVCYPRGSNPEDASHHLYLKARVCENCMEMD
Assay: FACS binding

B1: bsIgG1 huCD3-H3L1×HER2-LFLEDA (bispecific antibody)
heavy 1: EVKLVESGGGLVKPGRSLRLSCAASGFTFNTYAMNWVRQAPGKGLEWVARIRSKYNNYATYYADSVKDRFTISRDDSKSILYLQMNSLKTEDTAMYYCVRHGNFGNSYVSWFAYWGQGTLVTVSS
VL 1: not shown
heavy 2: QVQLVQSGAEVKKPGASVKVSCKASGYTFTNYGISWVRQAPGQGLEWMGWLSAYSGNTIYAQKLQGRVTMTTDTSTTTAYMELRSLRSDDTAVYYCARDRIVVRPDYFDYWGQGTLVTVSS
VL 2: EIVLTQSPATLSLSPGERATLSCRASQSVSSYLAWYQQKPGQAPRLLIYDASNRATGIPARFSGSGSGTDFTLTISSLEPEDFAVYYCQQRSNWPRTFGQGTKVEIK
Question: How did the EC50 turn out when B1 was run?
Answer: Its EC50 is 3.54 µg/mL.
